Assay results taken from patent US6903185.

How the values were obtained:
[1] = molecular target: NRE peptide (three-finger Zif268 variant) (synthetic) (UniProt P08046); test: cell_activity; conditions: 293 cells
[2] = molecular target: 268//NRE (six-finger fusion, longer linker) (synthetic) (UniProt P08046); test: cell_activity; conditions: VP16-activated transcription, 293 cells
[3] = molecular target: 268/NRE (six-finger fusion, shorter linker RQKDGERP) (synthetic) (UniProt P08046); test: cell_activity; conditions: 293 cells
[4] = molecular target: Zif268 and NRE peptides co-expressed as separate chains (synthetic) (UniProt P08046+P08046); test: cell_activity; conditions: co-expression of unlinked peptides; 293 cells
[5] = molecular target: 268//NRE (six-finger fusion, Zif268 fingers - longer linker - NRE fingers) (synthetic) (UniProt P08046); test: EMSA; conditions: room temp
[6] = molecular target: NRE peptide (three-finger Zif268 variant selected by phage display) (synthetic) (UniProt P08046); test: EMSA

AAGGGTTCA (double strand) [N site in luciferase reporter promoter]
activity (fold repression) [1]: 1.9

AAGGGTTCAGGCGTGGGCG (double strand) [N/Z site in luciferase reporter promoter]
activity (fold repression) [2]: 72
activity (fold repression) [3]: 68
activity (fold repression) [1]: 1.8
activity (fold repression) [4]: 8.5

AAGGGTTCAGTGCGTGGGCG (double strand) [N//Z site in luciferase reporter promoter]
activity (fold repression) [2]: 47
activity (fold repression) ([3]; linker modelled too short for all six fingers to bind): 22
activity (fold repression) [1]: 2.7

GTGTGTGTGTGATCTGCGTGGGCGGTAAG (double strand) [Z site]
Kd ([5]; exact Kd not determined, smeared band): 10 pM

TCTGCAAGGGTTCAGCGTGGGCGGTAAG (double strand) [NZ site]
Kd ([5]; calculated from koff/kon, direct titration <1.0 pM, pH 7.0, 100 mM NaCl, 5 mM MgCl2, Zn): 0.0021 pM
Kd ([6]; apparent Kd with 0.1 nM Zif268 prebound to neighboring site): 60 pM
Kd ([6]; apparent Kd, NRE peptide alone): 180 pM

TCTGCAAGGGTTCAGGCGACACCAACCAA (double strand) [N site]
Kd [5]: 190 pM

TCTGCAAGGGTTCAGGCGTGGGCGGTAAG (double strand) [N/Z site]
Kd ([5]; calculated from koff/kon, direct titration <1.0 pM, p113 states 3.8 fM): 0.0037 pM
Kd ([6]; room temp): 180 pM

TCTGCAAGGGTTCAGTGCGTGGGCGGTAAG (double strand) [N//Z site]
Kd ([5]; calculated from koff/kon, direct titration <1.0 pM): 0.003 pM
